Measured values from patent EP4755401A1, “PHARMACEUTICAL COMPOSITION CONTAINING ANTIBODY-DRUG CONJUGATE OF GLUCOCORTICOID” (Jiangsu Hengrui Pharmaceuticals Co., Ltd., priority 2023, dated 2025).

Legend:
[1] = Pharmacokinetic test in a mouse model after intratracheal nebulized administration; format: in vivo, C57BL6/J mice; conditions: mice, ADC-2 100 µg i.t. once; serum, BALF, lung tissue
Excerpt: Mice received intratracheal (i.t.) nebulized administration. […] Following blood collection, the mice were anesthetized and immobilized. […] Table 4. Administration scheme

[2] = biological target: T1, human-derived IL-4Rα on expressing cells (human, UniProt P24394 26-825); experiment: flow cytometry on TF-1 cells expressing IL-4Rα, anti-His-FITC detection
T1 sequence (looked up): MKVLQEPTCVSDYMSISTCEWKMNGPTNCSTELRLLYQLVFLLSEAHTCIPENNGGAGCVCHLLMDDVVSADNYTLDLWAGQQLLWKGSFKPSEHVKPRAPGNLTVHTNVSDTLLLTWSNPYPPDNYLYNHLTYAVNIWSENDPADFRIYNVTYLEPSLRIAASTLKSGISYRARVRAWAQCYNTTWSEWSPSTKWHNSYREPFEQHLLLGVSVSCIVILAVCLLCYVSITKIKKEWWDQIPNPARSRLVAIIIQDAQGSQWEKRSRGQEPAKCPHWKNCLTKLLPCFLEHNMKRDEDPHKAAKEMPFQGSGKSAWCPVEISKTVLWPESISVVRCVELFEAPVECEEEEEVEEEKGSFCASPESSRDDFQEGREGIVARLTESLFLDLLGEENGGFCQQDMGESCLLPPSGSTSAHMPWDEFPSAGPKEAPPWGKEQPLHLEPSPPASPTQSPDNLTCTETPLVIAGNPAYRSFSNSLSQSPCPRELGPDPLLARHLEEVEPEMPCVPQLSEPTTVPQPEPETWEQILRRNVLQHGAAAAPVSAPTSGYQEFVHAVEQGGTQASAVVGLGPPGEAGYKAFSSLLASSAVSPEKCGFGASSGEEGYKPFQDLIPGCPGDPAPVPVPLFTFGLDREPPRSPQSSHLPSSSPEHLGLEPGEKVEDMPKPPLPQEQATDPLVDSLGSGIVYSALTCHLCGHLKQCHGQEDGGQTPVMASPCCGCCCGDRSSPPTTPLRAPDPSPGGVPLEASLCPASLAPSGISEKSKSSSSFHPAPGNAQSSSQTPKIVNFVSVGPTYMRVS

[3] = biological target: Biotin-labeled human-derived IL-4Rα protein (SinoBiological, CAT# 10402-H08H-B) (human) (UniProt P24394); experiment: SPR, Biacore 8K, biotin-hIL-4Rα captured on SA chip, test protein as analyte
[4] = biological target: T1, human-derived IL-4Rα on expressing cells; experiment: cell-based or functional assay
[5] = biological target: T1, human-derived IL-4Rα on expressing cells; experiment: flow cytometry on TF-1 cells expressing IL-4Rα, anti-hFab-FITC detection
[6] = biological target: T2, Biotin-labeled human-derived IL-4Rα protein (SinoBiological, CAT# 10402-H08H-B) (human, UniProt P24394 26-232, biotin-labeled (site not stated)); experiment: SPR, Biacore 8K, biotin-hIL-4Rα captured on SA chip, test protein as analyte
T2 construct: Bought reagent, captured on an SA sensor chip; also called hIL-4Rα; human-derived IL-4Rα antigen protein
T2 sequence (looked up): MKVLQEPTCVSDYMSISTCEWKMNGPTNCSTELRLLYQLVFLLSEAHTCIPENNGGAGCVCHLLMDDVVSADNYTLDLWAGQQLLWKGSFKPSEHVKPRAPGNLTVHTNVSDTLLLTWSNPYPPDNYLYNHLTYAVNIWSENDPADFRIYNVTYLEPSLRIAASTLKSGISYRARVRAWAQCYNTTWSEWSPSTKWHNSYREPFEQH

For CCCC1O[C@@H]2C[C@H]3[C@@H]4CCC5=CC(=O)C=C[C@]5(C)[C@H]4[C@@H](O)C[C@]3(C)[C@]2(C(=O)CO)O1 (some centres unmarked) [budesonide], the “distribution / exposure after intratracheal administration (in words)” value [1] was “very low in all tissues”.

Molecule AZD1402-TAG (designed binder) has an EC50 [2] of 0.0124 nM, a Kd [3] of 0.0213 nM and a koff [3] of 0.000102 s⁻¹. The kon [3] was 4.77e+06 M⁻¹ s⁻¹.

B1: antibody-drug conjugate ADC-2 (Fab, V domains shown)
VH: EVQLVESGGGLVQPGGSLRLSCAASGFTFSDYGMHWVRQAPGKGLEWVAFISSGSSIIYYADIVKGRSTISRDNAKNTLYLQMNSLRAEDTAVYYCTRGNKRGFFDYWGQGTLVTVSS
VL: EIVLTQSPATLSLSPGERATLSCRASSSVPYMYWYQQKPGQAPRLLIYLTSNLASGIPARFSGSGSGTDFTLTISSLEPEDFAVYYCQQWRAYPPMLTFGGGTKVEIKR
modifications: budesonide drug-linker (compound 2, maleimide) conjugated after TCEP reduction of 25G7-Fab; conjugated residues and drug load not stated
For B1, the “IC50 values for blocking the IL-4 signaling pathway (nM); HEK-Blue IL-4/IL-13 STAT6-SEAP reporter cells” value [4] was 0.68 nM and the “IC50 values for blocking the IL-13 signaling pathway (nM); HEK-Blue IL-4/IL-13 STAT6-SEAP reporter cells” value [4] was 10.6 nM.

B2: 25G7-Fab (Fab, V domains shown)
VH: EVQLVESGGGLVQPGGSLRLSCAASGFTFSDYGMHWVRQAPGKGLEWVAFISSGSSIIYYADIVKGRSTISRDNAKNTLYLQMNSLRAEDTAVYYCTRGNKRGFFDYWGQGTLVTVSS
VL: EIVLTQSPATLSLSPGERATLSCRASSSVPYMYWYQQKPGQAPRLLIYLTSNLASGIPARFSGSGSGTDFTLTISSLEPEDFAVYYCQQWRAYPPMLTFGGGTKVEIKR
notes: also called naked anti-25G7-Fab; naked antibody 25G7-Fab
For B2, the EC50 [5] was 0.243 nM, the “IC50 values for blocking the IL-4 signaling pathway (nM); HEK-Blue IL-4/IL-13 STAT6-SEAP reporter cells” value [4] was 0.61 nM and the “IC50 values for blocking the IL-13 signaling pathway (nM); HEK-Blue IL-4/IL-13 STAT6-SEAP reporter cells” value [4] was 14.6 nM. For the same molecule, the Kd [6] was 0.0439 nM, the koff [6] was 0.000206 s⁻¹ and the kon [6] was 4.69e+06 M⁻¹ s⁻¹.

B3: hu25G7 (antibody, human IgG4 S228P, kappa, V domains shown)
VH: EVQLVESGGGLVQPGGSLRLSCAASGFTFSDYGMHWVRQAPGKGLEWVAFISSGSSIIYYADIVKGRSTISRDNAKNTLYLQMNSLRAEDTAVYYCTRGNKRGFFDYWGQGTLVTVSS
VL: EIVLTQSPATLSLSPGERATLSCRASSSVPYMYWYQQKPGQAPRLLIYLTSNLASGIPARFSGSGSGTDFTLTISSLEPEDFAVYYCQQWRAYPPMLTFGGGTKVEIKR
notes: Full-length humanized anti-IL-4R IgG4 antibody
B3 showed an EC50 [5] of 0.247 nM.
